# Tested on: RNAi activity in 293T cells
# Experiment: Modified pGL4.72[hRlucCP] vector luciferase assay of RNAi activity
# Type: cell-based
# Conditions: overexpression from pEGFP-C1, 10 nM vector-target RNAi, 48 hours, vs EGFP- and G3BP-overexpressing cells (FIG. 30)
# Text: Assays for measuring RNAi activity in a cell are available in the art. For example, psiCHECK™-1, psiCHECK™-2, and pGL4.72[hRlucCP]™ vector assay systems provide methods for the measurement of RNAi activity in a cell. In these assays systems, luciferase is used a primary reporter gene and a target sequence (i.e., the target of one or more RNAi molecules) is cloned a multiple cloning region located downstream of the luciferase translational stop codon. Initiation of the RNAi process towards the target gene results in the cleavage and subsequent degradation of the fusion mRNA encoded by the vectors (i.e., upon treatment of the transfected cell with a vector-target RNAi molecule). Measurement of decreased luciferase activity in the transfected cells following treatment with the vector-target RNAi indicates the activity of RNAi in the cell. […]
# Additional experiments were performed to determine the effect of PARP13 knockdown on miRNA activity. […] In a second set of experiments, the ability of the vector-target RNAi to reduce the expression of luciferase was measured in 293T cells transfected with pGL4.72[hRlucCP]™ vector, 20 nM vector-target RNAi, and 20 nM of negative RNAi control for PARP13 siRNA (siNeg; AllStars Negative Control siRNA; Qiagen Catalog No. 1027280) or PARP13 siRNA (siPARP13; SEQ ID NO: 40) following treatment with 0 or 30 nM pateamine A for 2 hours. […]
molecule,measurement,value
PARP13: PARP13 overexpressed from a pEGFP-C1 plasmid (protein) ADPEVCCFITKILCAHGGRMALDALLQEIALSEPQLCEVLQVAGPDRFVVLETGGEAGITRSVVATTRARVCRRKYCQRPCDNLHLCKLNLLGRCNYSQSERNLCKYSHEVLSEENFKVLKNHELSGLNKEELAVLLLQSDPFFMPEICKSYKGEGRQQICNQQPPCSRLHICDHFTRGNCRFPNCLRSHNLMDRKVLAIMREHGLNPDVVQNIQDICNSKHMQKNPPGPRAPSSHRRNMAYRARSKSRDRFFQGSQEFLASASASAERSCTPSPDQISHRASLEDAPVDDLTRKFTYLGSQDRARPPSGSSKATDLGGTSQAGTSQRFLENGSQEDLLHGNPGSTYLASNSTSAPNWKSLTSWTNDQGARRKTVFSPTLPAARSSLGSLQTPEAVTTRKGTGLLSSDYRIINGKSGTQDIQPGPLFNNNADGVATDITSTRSLNYKSTSSGHREISSPRIQDAGPASRDVQATGRIADDADPRVALVNDSLSDVTSTTSSRVDDHDSEEICLDHLCKGCPLNGSCSKVHFHLPYRWQMLIGKTWTDFEHMETIEKGYCNPGIHLCSVGSYTINFRVMSCDSFPIRRLSTPSSVTKPANSVFTTKWIWYWKNESGTWIQYGEEKDKRKNSNVDSSYLESLYQSCPRGVVPFQAGSRNYELSFQGMIQTNIASKTQKDVIRRPTFVPQWYVQQMKRGPDHQPAKTSSVSLTATFRPQEDFCFLSSKKYKLSEIHHLHPEYVRVSEHFKASMKNFKIEKIKKIENSELLDKFTWKKSQMKEEGKLLFYATSRAYVESICSNNFDSFLHETHENKYGKGIYFAKDAIYSHKNCPYDAKNVVMFVAQVLVGKFTEGNITYTSPPPQFDSCVDTRSNPSVFVIFQKDQVYPQYVIEYTEDKACVIS,decrease in the level of miRNA-mediated repression compared to control cells,3 fold

# Reference: patent publication US8435961B2, “Methods and compositions for increasing the activity of inhibitory RNA” (Massachusetts Institute of Technology, priority 2009, dated 2013)
